Source: patent US5989875A, “Method of process for producing L-lysine by fermentation” (priority 1995, dated 1999)
Residue numbers refer to the chain shown, from its start.

B1: wild type DDPS: wild type dihydrodipicolinate synthase of E. coli, SEQ ID NO:4 (protein)
chain: MFTGSIVAIVTPMDEKGNVCRASLKKLIDYHVASGTSAIVSVGTTGESATLNHDEHADVVMMTLDLADGRIPVIAGTGANATAEAISLTQRFNDSGIVGCLTVTPYYNRPSQEGLYQHFKAIAEHTDLPQILYNVPSRTGCDLLPETVGRLAKVKNIIGIKEATGNLTRVNQIKELVSDDFVLLSGDDASALDFMQLGGHGVISVTTNVAARDMAQMCKLAAEEHFAEARVINQRLMPLHNKLFVEPNPIPVKWACKELGLVATDTLRLPMTPITDSGRETVRAALKHAGLL
B2: pdapAS24 (protein)
chain: B1 chain with H118Y

Test system: DDPS
Test: Enzyme activity of DDPS and inhibition by L-lysine (cell-free extract)
Type: biochemical, E. coli
Details: for Inhibition of DDPS by L-lysine: various concentrations of L-lysine added, FIG. 2
Procedure: Mutant pdapA2's were recovered from the 36 strains described above. A dapA-deficient strain, JE7627 was transformed with them and the wild type pdapA2, respectively. A cell-free extract was prepared from each of the transformed strains, and the enzyme activity of DDPS was measured.
The cell-free extract (crude enzyme solution) was prepared as follows. A transformed strain was cultivated in a 2 x TY medium (1.6% Bacto trypton, 1% Yeast extract, 0.5% NaCl), and collected at an optical density at 660 nm (OD660) of about 0.8. A cell pellet was washed with 0.85% NaCl under a condition of 0° C., and suspended in 20 mM potassium phosphate buffer (pH 7.5) containing 400 mM KCl. The cells were disrupted by sonication (0° C., 200 W, 10 minutes). A disrupted cell solution was centrifuged at 33 krpm for 1 hour under a condition of 0° C. to obtain a supernatant to which ammonium sulfate was added to give 80% saturation to be stored at 0° C. overnight followed by centrifugation. A pellet was dissolved in 20 mM potassium phosphate buffer (pH 7.5)-400 mM KCl.
The enzyme activity of DDPS was measured in accordance with a method of Yugari et al. (Yugari, Y. and Gilvarg, C., J. Biol. Chem., 240, 4710 ([…])). Namely, the absorbance of a reaction solution having the following composition was measured at 37° C. with a spectrophotometer at a wavelength of 270 nm in a time-course manner, and generated dihydrodipicolinate was measured. Sodium pyruvate was removed from the reaction system to be used as a blank.
In measurement of the enzyme activity of DDPS, various concentrations of L-lysine were added to the enzyme reaction solutionand the degree of inhibition by L-lysine was examined.

| Molecule | Inhibition of DDPS by L-lysine | Specific activity of DDPS as compared with the wild type (cell-free extract of JE7627 transformants) |
| --- | --- | --- |
| B1 | suffered inhibition by L-lysine | – |
| B2 | desensitized | lowered a little |
